The values that follow are results of earlier work, collected in PMC10018202.

One series deals with Cys283 (UniProt position 283, GYILTCPSNLG).
The next series deals with Cys34 (UniProt position 58, QYLQQCPFEDH). The experiment in a line: chemical modification (thiol-disulfide exchange with 2,2'-dithiodipyridine, per the title of the cited reference); the article calls it 'spectroscopic measurements'. As to conditions: not stated (the article notes the pKa changes by 1.5 pH units depending on the ionic strength of the buffer).

For “Creatine kinase (the quoted measurement is most likely on human muscle-type CK; the article's docking target is brain-type CK) (Homo sapiens)”, the pKa entry with Cys283 is “around 5.7 and ∼5.6”.
With Serum albumin (HSA) (Homo sapiens), the pKa result in the series with Cys34 is listed as “around 7”.
